Assays:
[1] = test system: HeLa Kyoto; assay: thermal stability score vs G1/S (z-score of summed log2 fold changes over temperatures); higher = more thermally stable than in G1/S
[2] = test system: HeLa Kyoto; assay: melting temperature (median over replicates), in situ; higher = more thermally stable
[3] = test system: HeLa Kyoto; assay: solubility in G1/S (NP-40 vs SDS abundance) (log2 ratio); higher = more soluble; settings: cell cycle stage: G1/S
[4] = test system: HeLa Kyoto; assay: solubility change mitosis vs G1/S (difference of NP-40 vs SDS log2 ratios) (log2 ratio difference); higher = more soluble in mitosis
[5] = cell cycle stage: early G1 (4.5 h after nocodazole release)
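For melting temperature (median over replicates), in situ in this document: HeLa Kyoto cells synchronized by double thymidine or nocodazole block, proteins quantified by TMT10plex mass spectrometry, three independent biological replicates.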
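For solubility change mitosis vs G1/S (difference of NP-40 vs SDS log2 ratios) in this document: synchronized HeLa Kyoto cells (double thymidine block for G1/S, nocodazole release for mitosis), protein amounts in NP-40 versus SDS lysates quantified by mass spectrometry, three biological replicates.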
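For solubility in G1/S (NP-40 vs SDS abundance) in this document: HeLa Kyoto cells arrested at G1/S by double thymidine block, proteins quantified by TMT10plex mass spectrometry in mild NP-40 versus SDS extracts, three biological replicates.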
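For thermal stability score vs G1/S (z-score of summed log2 fold changes over temperatures) in this document: synchronized HeLa Kyoto cells, proteins quantified by TMT10plex mass spectrometry, three biological replicates, mitosis taken 0.5 h after nocodazole release, G1/S directly after double thymidine block.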

“MCGIFAYMNYRVPRTRKEIFETLIKGLQRLEYRGYDSAGVAIDGNNHEVKERHIQLVKKRGKVKALDEELYKQDSMDLKVEFETHFGIAHTRWATHGVPSAVNSHPQRSDKGNEFVVIHNGIITNYKDLRKFLESKGYEFESETDTETIAKLIKYVFDNRETEDITFSTLVERVIQQLEGAFALVFKSVHYPGEAVATRRGSPLLIGVRSKYKLSTEQIPILYRTCTLENVKNICKTRMKRLDSSACLHAVGDKAVEFFFASDASAIIEHTNRVIFLEDDDIAAVADGKLSIHRVKRSASDDPSRAIQTLQMELQQIMKGNFSAFMQKEIFEQPESVFNTMRGRVNFETNTVLLGGLKDHLKEIRRCRRLIVIGCGTSYHAAVATRQVLEELTELPVMVELASDFLDRNTPVFRDDVCFFISQSGETADTLLALRYCKDRGALTVGVTNTVGSSISRETDCGVHINAGPEIGVASTKAYTSQFISLVMFGLMMSEDRISLQNRRQEIIRGLRSLPELIKEVLSLEEKIHDLALELYTQRSLLVMGRGYNYATCLEGALKIKEITYMHSEGILAGELKHGPLALIDKQMPVIMVIMKDPCFAKCQNALQQVTARQGRPIILCSKDDTESSKFAYKTIELPHTVDCLQGILSVIPLQLLSFHLAVLRGYDVDFPRNLAKSVTVE [GFPT2]” was tested, and the thermal stability score [1, 5] was -1.27, the thermal stability score ([1]; cell cycle stage: mitosis) was 0.586 and the melting temperature ([2]; cell cycle stage: G1/S) was 54.3 °C. For the same sequence, the melting temperature ([2]; cell cycle stage: mitosis) was 53.9 °C, the “solubility in G1/S (log2)” value [3] was -0.201 and the “solubility change mitosis (log2)” value [4] was -0.124.

“MCGRTSCHLPRDVLTRACAYQDRRGQQRLPEWRDPDKYCPSYNKSPQSNSPVLLSRLHFEKDADSSERIIAPMRWGLVPSWFKESDPSKLQFNTTNCRSDTVMEKRSFKVPLGKGRRCVVLADGFYEWQRCQGTNQRQPYFIYFPQIKTEKSGSIGAADSPENWEKVWDNWRLLTMAGIFDCWEPPEGGDVLYSYTIITVDSCKGLSDIHHRMPAILDGEEAVSKWLDFGEVSTQEALKLIHPTENITFHAVSSVVNNSRNNTPECLAPVDLVVKKELRASGSSQRMLQWLATKSPKKEDSKTPQKEESDVPQWSSQFLQKSPLPTKRGTAGLLEQWLKREKEEEPVAKRPYSQ [HMCES]” was tested, and the thermal stability score [1, 5] was 1.11, the thermal stability score ([1]; cell cycle stage: mitosis) was 1.51 and the melting temperature ([2]; cell cycle stage: G1/S) was 48.6 °C. For the same sequence, the melting temperature ([2]; cell cycle stage: mitosis) was 48.4 °C, the “solubility in G1/S (log2)” value [3] was 0.0685 and the “solubility change mitosis (log2)” value [4] was -0.0383.

Sequence “MCGSALAFFTAAFVCLQNDRRGPASFLWAAWVFSLVLGLGQGEDNRCASSNAASCARCLALGPECGWCVQEDFISGGSRSERCDIVSNLISKGCSVDSIEYPSVHVIIPTENEINTQVTPGEVSIQLRPGAEANFMLKVHPLKKYPVDLYYLVDVSASMHNNIEKLNSVGNDLSRKMAFFSRDFRLGFGSYVDKTVSPYISIHPERIHNQCSDYNLDCMPPHGYIHVLSLTENITEFEKAVHRQKISGNIDTPEGGFDAMLQAAVCESHIGWRKEAKRLLLVMTDQTSHLALDSKLAGIVVPNDGNCHLKNNVYVKSTTMEHPSLGQLSEKLIDNNINVIFAVQGKQFHWYKDLLPLLPGTIAGEIESKAANLNNLVVEAYQKLISEVKVQVENQVQGIYFNITAICPDGSRKPGMEGCRNVTSNDEVLFNVTVTMKKCDVTGGKNYAIIKPIGFNETAKIHIHRNCSCQCEDNRGPKGKCVDETFLDSKCFQCDENKCHFDEDQFSSESCKSHKDQPVCSGRGVCVCGKCSCHKIKLGKVYGKYCEKDDFSCPYHHGNLCAGHGECEAGRCQCFSGWEGDRCQCPSAAAQHCVNSKGQVCSGRGTCVCGRCECTDPRSIGRFCEHCPTCYTACKENWNCMQCLHPHNLSQAILDQCKTSCALMEQQHYVDQTSECFSSPSYLRIFFIIFIVTFLIGLLKVLIIRQVILQWNSNKIKSSSDYRVSASKKDKLILQSVCTRAVTYRREKPEEIKMDISKLNAHETFRCNF [ITGB8]” has a thermal stability score [1, 5] of -0.935, a thermal stability score ([1]; cell cycle stage: mitosis) of -1.88 and a melting temperature ([2]; cell cycle stage: G1/S) of 53.9 °C. For the same sequence, the melting temperature ([2]; cell cycle stage: mitosis) was 53.8 °C, the “solubility in G1/S (log2)” value [3] was -0.0596 and the “solubility change mitosis (log2)” value [4] was -0.0048.

For “MCSLASGATGGRGAVENEEDLPELSDSGDEAAWEDEDDADLPHGKQQTPCLFCNRLFTSAEETFSHCKSEHQFNIDSMVHKHGLEFYGYIKLINFIRLKNPTVEYMNSIYNPVPWEKEEYLKPVLEDDLLLQFDVEDLYEPVSVPFSYPNGLSENTSVVEKLKHMEARALSAEAALARAREDLQKMKQFAQDFVMHTDVRTCSSSTSVIADLQEDEDGVYFSSYGHYGIHEEMLKDKIRTESYRDFIYQNPHIFKDKVVLDVGCGTGILSMFAAKAGAKKVLGVDQSEILYQAMDIIRLNKLEDTITLIKGKIEEVHLPVEKVDVIISEWMGYFLLFESMLDSVLYAKNKYLAKGGSVYPDICTISLVAVSDVNKHADRIAFWDDVYGFKMSCMKKAVIPEAVVEVLDPKTLISEPCGIKHIDCHTTSISDLEFSSDFTLKITRTSMCTAIAGYFDIYFEKNCHNRVVFSTGPQSTKTHWKQTVFLLEKPFSVKAGEALKGKVTVHKNKKDPRSLTVTLTLNNSTQTYGLQ [PRMT3]”, the thermal stability score [1, 5] was 0.9, the thermal stability score ([1]; cell cycle stage: mitosis) was 1.13 and the melting temperature ([2]; cell cycle stage: G1/S) was 50.9 °C. For the same sequence, the melting temperature ([2]; cell cycle stage: mitosis) was 51 °C, the “solubility in G1/S (log2)” value [3] was -0.146 and the “solubility change mitosis (log2)” value [4] was -0.212.

“MDALEDYVWPRATSELILLPVTGLECVGDRLLAGEGPDVLVYSLDFGGHLRMIKRVQNLLGHYLIHGFRVRPEPNGDLDLEAMVAVFGSKGLRVVKISWGQGHFWELWRSGLWNMSDWIWDARWLEGNIALALGHNSVVLYDPVVGCILQEVPCTDRCTLSSACLIGDAWKELTIVAGAVSNQLLVWYPATALADNKPVAPDRRISGHVGIIFSMSYLESKGLLATASEDRSVRIWKVGDLRVPGGRVQNIGHCFGHSARVWQVKLLENYLISAGEDCVCLVWSHEGEILQAFRGHQGRGIRAIAAHERQAWVITGGDDSGIRLWHLVGRGYRGLGVSALCFKSRSRPGTLKAVTLAGSWRLLAVTDTGALYLYDVEVKCWEQLLEDKHFQSYCLLEAAPGPEGFGLCAMANGEGRVKVVPINTPTAAVDQTLFPGKVHSLSWALRGYEELLLLASGPGGVVACLEISAAPSGKAIFVKERCRYLLPPSKQRWHTCSAFLPPGDFLVCGDRRGSVLLFPSRPGLLKDPGVGGKARAGAGAPVVGSGSSGGGNAFTGLGPVSTLPSLHGKQGVTSVTCHGGYVYTTGRDGAYYQLFVRDGQLQPVLRQKSCRGMNWLAGLRIVPDGSMVILGFHANEFVVWNPRSHEKLHIVNCGGGHRSWAFSDTEAAMAFAYLKDGDVMLYRALGGCTRPHVILREGLHGREITCVKRVGTITLGPEYGVPSFMQPDDLEPGSEGPDLTDIVITCSEDTTVCVLALPTTTGSAHALTAVCNHISSVRAVAVWGIGTPGGPQDPQPGLTAHVVSAGGRAEMHCFSIMVTPDPSTPSRLACHVMHLSSHRLDEYWDRQRNRHRMVKVDPETRYMSLAVCELDQPGLGPLVAAACSDGAVRLFLLQDSGRILQLLAETFHHKRCVLKVHSFTHEAPNQRRRLLLCSAATDGSLAFWDLTTMLDHDSTVLEPPVDPGLPYRLGTPSLTLQAHSCGINSLHTLPTREGHHLVASGSEDGSLHVFVLAVEMLQLEEAVGEAGLVPQLRVLEEYSVPCAHAAHVTGLKILSPSIMVSASIDQRLTFWRLGHGEPTFMNSTVFHVPDVADMDCWPVSPEFGHRCALGGQGLEVYNWYD [WDR6]” gave a thermal stability score [1, 5] of -0.588, a thermal stability score ([1]; cell cycle stage: mitosis) of 0.0649 and a melting temperature ([2]; cell cycle stage: G1/S) of 51.5 °C. The melting temperature ([2]; cell cycle stage: mitosis) was 51.6 °C, the “solubility in G1/S (log2)” value [3] was -0.611 and the “solubility change mitosis (log2)” value [4] was -0.023.
